These results are taken from PMC9029707, “Crystal Structure of an SSB Protein from Salmonella enterica and Its Inhibition by Flavanonol Taxifolin” (International Journal of Molecular Sciences, 2022).

Data set [1] addresses T1, SeSSB (single-stranded DNA-binding protein, STM_4256) (Salmonella enterica, UniProt P0A2F6).
T1 construct: gene ssb; His-tagged SeSSB, 176 residues (pET21b-SeSSB)
In words: EMSA, inhibition of binding of purified SeSSB ([…]) to biotinylated ssDNA dT35. In general terms: In EMSA bound probe runs differently from free probe, usually more slowly.

The target of data set [2] is T2, SeSSB (single-stranded DNA-binding protein) (Salmonella enterica serovar Typhimurium …, UniProt P0A2F6 1-176). In words: EMSA; two complexes at higher SeSSB (0-4000 nM); dA EMSA: 20 mM Tris-HCl pH 8.0, 100 mM NaCl, 25 C, 30 min, 1.7 nM DNA; dT35 EMSA: 40 mM Tris-HCl pH 7.5, 50 mM NaCl, 37 C, 60 min, 30 fmol/uL DNA; 8% native PAGE in TBE. The note with it: protein: recombinant; tags: His-tag (pET21b); chain copies: 4; label: 5'-32P (T4 PNK); single strand.

For data set [3], the target named is T2, SeSSB (single-stranded DNA-binding …). As to the kind of experiment: EMSA; single complex; SeSSB 0-4000 nM; dA EMSA: 20 mM Tris-HCl pH 8.0, 100 mM NaCl, 25 C, 30 min, 1.7 nM DNA; dT35 EMSA: 40 mM Tris-HCl pH 7.5, 50 mM NaCl, 37 C, 60 min, 30 fmol/uL DNA; 8% native PAGE in TBE. Particulars: protein: recombinant; tags: His-tag (pET21b); chain copies: 4; label: 5'-32P (T4 PNK); single strand.

Data set [4] concerns the molecule itself. In words: SEC; purified SeSSB (5 mg/mL) on a Superdex 200 prep-grade column in 100 mM NaCl, 100 mM MES, pH 6.5; calibrated with standard proteins; native mass estimated 76641 Da; tetramer.
For data set [5], the target named is T2, SeSSB (single-stranded DNA-binding …). As to the kind of experiment: EMSA; two complexes; SeSSB 0-4000 nM; dA EMSA: 20 mM Tris-HCl pH 8.0, 100 mM NaCl, 25 C, 30 min, 1.7 nM DNA; dT35 EMSA: 40 mM Tris-HCl pH 7.5, 50 mM NaCl, 37 C, 60 min, 30 fmol/uL DNA; 8% native PAGE in TBE. Particulars: protein: recombinant; tags: His-tag (pET21b); chain copies: 4; label: 5'-32P (T4 PNK); single strand.

The target is the same in data set [6]. In words: EMSA; 37 C, 40 mM Tris-HCl pH 7.5, 50 mM NaCl; protein at 50% bound; dA EMSA: 20 mM Tris-HCl pH 8.0, 100 mM NaCl, 25 C, 30 min, 1.7 nM DNA; dT35 EMSA: 40 mM Tris-HCl pH 7.5, 50 mM NaCl, 37 C, 60 min, 30 fmol/uL DNA; 8% native PAGE in TBE. The note with it: protein: recombinant; tags: His-tag (pET21b); chain copies: 4; label: biotin (5' per Methods 4.5; 3' per Results 2.5); single strand.

As for `O=C1c2c(O)cc(O)cc2O[C@H](c2ccc(O)c(O)c2)[C@H]1O` [taxifolin], in data set [1], the IC50 came out at 98 ± 12 µM.

With AAAAAAAAAAAAAAAAAAAAAAAAAAAAAAAAAAAAAAAAAAAAA (ssDNA) [dA45], the binding result in data set [2] is “binds”.

On to AAAAAAAAAAAAAAAAAAAAAAAAAAAAAAAAAAA (ssDNA) [dA35], for which the binding result in data set [3] is “binds”.

B1: Single-stranded DNA-binding protein (SSB) from Salmonella enterica serovar Typhimurium LT2 (natural protein, UniProt P0A2F6 1-176, looked up)
chain: MASRGVNKVILVGNLGQDPEVRYMPSGGAVANLTLATSESWRDKQTGEMKEQTEWHRVVMFGKLAEVAGEYLRKGSQVYIEGQLRTRKWTDQSGQERYTTEINVPQIGGVMQMLGGRQGGGAPAGGQQQGGWGQPQQPQQPQGGNQFSGGAQSRPQQSAPAPSNEPPMDFDDDIPF
notes: SSB (STM_4256) of Salmonella enterica serovar Typhimurium LT2; monomer of 176 amino acid residues, ~19 kDa; residues 1-115 ordered and 116-176 disordered in the crystal; No removal of the tag is described; also called SeSSB; S. enterica SSB
Consider B1, for which, in data set [4], the “stoichiometry N” value is 4.

With AAAAAAAAAAAAAAAAAAAAAAAAAAAAAAAAAAAAAAAAAAAAAAAAAA (ssDNA) [dA50], the binding result in data set [5] is listed as “binds”.

In the case of AAAAAAAAAAAAAAAAAAAAAAAAAAAAAAAAAAAAAAAA (ssDNA) [dA40], the binding result in data set [3] is listed as “binds”.

B2: dA55 (ssDNA)
DNA: AAAAAAAAAAAAAAAAAAAAAAAAAAAAAAAAAAAAAAAAAAAAAAAAAAAAAAA
As for B2, the binding result in data set [5] is given as “binds”.

For the molecule TTTTTTTTTTTTTTTTTTTTTTTTTTTTTTTTTTT (ssDNA) [dT35], the Kd in data set [6] came to 0.23 ± 0.02 µM.

The IC50 is the concentration at which inhibition is half-maximal. Low readings indicate inhibition by little substance, high ones a need for much substance. What is called stoichiometry N is the number of molecules, sites or subunits per partner or assembly. What is called Kd is the equilibrium constant for the complex coming apart.
